Measurements as given in publication PMC9973045, “The Drug-Induced Interface That Drives HIV-1 Integrase Hypermultimerization and Loss of Function” (mBio, 2023).

Target: the molecule itself
Experiment: SEC-MALS; SEC-MALLS of isolated CTDs; Superdex-75 Increase 10/300; 0.5 M NaCl, 25 mM Tris-HCl pH 7.5, 3 mM NaN3, 0.5 mM TCEP; 25°C; loaded at 8, 4, 2, 1 or 0.5 mg/mL; dimer to monomers

B1: isolated HIV-1 IN CTD (wild type), IN residues 220 to 270 (domain or fragment)
chain: IQNFRVYYRDSRDPVWKGPAKLLWKGEGAVVIQDNSDIKVVPRRKAKIIRD
notes: HIV-1 integrase (IN) carboxyl-terminal domain, residues 220 to 270, lacking the C-terminal tail; numbers count on: the mature integrase (IN residues); A prior drug-free HIV-1 IN CTD structure is cited as PDB 6T6E; also called carboxyl-terminal domain; source: E. coli BL21-CodonPlus (DE3), purified (Ni-NTA, HiTrap SP, SEC); not shown: His6-Sumo, N-terminal, cleaved
stoichiometry N: 2
